Assay [1] concerns the target recombinant mouse TNFα (mouse) (UniProt P06804). Put plainly: cell-based or functional assay.
Assay [2] has as its target recombinant human TNFα (rhTNF, Dainippon, Osaka, Japan) (human) (UniProt P01375). As to the kind of experiment: Scatchard analysis; direct binding of 125I-labelled antibody to rhTNFα immobilized in a 96-well plate.

The values below come from US20110123543A1.

UniProt P06804, sequence (P06804 80-235 limits assumed): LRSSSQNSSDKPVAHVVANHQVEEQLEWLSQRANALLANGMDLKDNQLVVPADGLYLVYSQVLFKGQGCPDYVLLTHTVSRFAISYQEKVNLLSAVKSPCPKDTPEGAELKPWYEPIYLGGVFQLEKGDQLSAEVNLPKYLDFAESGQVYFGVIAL
UniProt P01375, sequence (P01375 77-233 limits assumed): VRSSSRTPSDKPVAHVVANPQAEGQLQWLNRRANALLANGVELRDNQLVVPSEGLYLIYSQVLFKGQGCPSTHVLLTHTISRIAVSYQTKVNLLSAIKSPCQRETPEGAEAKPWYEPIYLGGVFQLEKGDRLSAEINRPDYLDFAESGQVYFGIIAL

Take “TNF receptor/IgG fusion protein p55-sf2 (from UniProt P19438 30-211; P01857 1-330) (Fc fusion)”: in assay [1], the neutralizing titre: concentration required to cause 50% inhibition of killing of WEHI 164 cells by trimeric recombinant murine TNFα (60 pg/ml mouse TNFα) came out at 0.6 ng/mL.

On to “TN3-19.12, neutralizing hamster IgG1 anti-TNFα/β monoclonal antibody”, for which, in assay [1], the neutralizing titre: concentration required to cause 50% inhibition of killing of WEHI 164 cells by trimeric recombinant murine TNFα (60 pg/ml mouse TNFα) worked out at 62 ng/mL.

With “chimeric A2 (cA2), chimeric monoclonal anti-TNF antibody”, the Ka in assay [2] is 1.8e+09 M⁻¹.
